Test results published in US9724381B2 (THE ADMINISTRATORS OF THE TULANE EDUCATIONAL FUND, priority 2009, dated 2017).
Values joined by “and” are separate entries in the source; they are usually repeats but may differ in a detail not shown here. Equal values may be shown once. Where no end group is shown, it is not given here. [ ]: non-standard residue; d: D form. d1Nal = N[C@H](Cc1cccc2ccccc12)C(=O)O; d2Nal = N[C@H](Cc1ccc2ccccc2c1)C(=O)O; dCha = N[C@H](CC1CCCCC1)C(=O)O; Dab = NCC[C@H](N)C(=O)O; Aib = CC(C)(N)C(=O)O; βAla = NCCC(=O)O

Biological target: Ghrelin/GHRP/GHS Receptor (Rattus norvegicus, UniProt O08725)
Sequence (O08725 whole entry): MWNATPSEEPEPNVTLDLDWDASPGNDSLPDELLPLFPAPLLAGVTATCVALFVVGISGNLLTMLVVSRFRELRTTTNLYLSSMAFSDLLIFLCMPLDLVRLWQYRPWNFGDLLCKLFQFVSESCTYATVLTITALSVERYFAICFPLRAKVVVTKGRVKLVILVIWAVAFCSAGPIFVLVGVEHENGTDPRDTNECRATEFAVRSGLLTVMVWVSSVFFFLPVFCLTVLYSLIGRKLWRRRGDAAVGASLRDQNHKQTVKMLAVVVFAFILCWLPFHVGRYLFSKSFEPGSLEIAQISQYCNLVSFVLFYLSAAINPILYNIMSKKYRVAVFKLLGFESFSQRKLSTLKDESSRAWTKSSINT
Assay: In vivo GH release in rat (serum GH by RIA after i.v. peptide)
Details: for Unstimulated Basal GH Release from rat: Table 3; for Unstimulated Basal GH release from rats: Table 5; for Stimulated (S) GH release from rats / Unstimulated GH release from rats: Table 4; for Stimulated (S) GH release from rats: P + S; for Unstimulated GH release from rats: −S
Experimental: For the in vivo assay of GH Release in rat, immature female Sprague Dawley rats were obtained from Charles River from Wilmington, Mass. After arrival they were housed at 25° C. with a 14:10 h light:dark cycle. Water and Purina rat chow were available at libitum. Pups were weaned at 21 days of age.
Immature twenty six day old female Sprague Dawley rats, 3-6 rats per treatment dose, were pretreated with pentobarbital 20 minutes before iv injection of vehicle/peptide or peptide plus stimulator. Injection was made as a 0.1 ml solution. For the non-pentobarbital treated rat assay, peptides were administered iv into the tail vein of conscious rats. All animals were sacrificed by guillotine after iv peptide or vehicle. Trunk blood was collected at +10-15 minutes […], allowed to clot, centrifuged and serum stored until assayed for GH levels by RIA. The GH RIA reagents were distributed by the NIH. Control data was collected from rats treated with only the corresponding vehicle in the absence of peptide or stimulator. Control stimulated data was collected from rats treated with stimulator alone in the absence of any peptide.

[1] = peptide antagonist alone 1 μg i.v.
[2] = peptide antagonist alone 3 μg i.v.
[3] = peptide antagonist alone 10 μg i.v.
[4] = Table 2, peptide antagonist 10 μg i.v. + stimulator DAla-DβNal-Ala-Trp-DPhe-Lys-NH2 1 μg
[5] = Table 2, peptide antagonist 30 μg i.v. + stimulator DAla-DβNal-Ala-Trp-DPhe-Lys-NH2 0.3 μg
[6] = Table 2, peptide antagonist 30 μg i.v. + stimulator DAla-DβNal-Ala-Trp-DPhe-Lys-NH2 1 μg
[7] = peptide antagonist alone 30 μg i.v.
[8] = Table 2, peptide antagonist 100 μg i.v. + stimulator DAla-DβNal-Ala-Trp-DPhe-Lys-NH2 1 μg
[9] = non-pentobarbital rats, peptide 30 μg i.v., stimulator 10 μg
[10] = non-pentobarbital rats, peptide 30 μg i.v.
[11] = pentobarbital rats, peptide 30 μg i.v.
[12] = pentobarbital rats, peptide 100 μg i.v.

DcyclohexylAla-Ala-Phe-DTrp-Lys-NH2 ([dCha]AF[dW]K-NH2; N-terminus assumed; SMILES C[C@H](NC(=O)[C@H](N)CC1CCCCC1)C(=O)N[C@@H](Cc1ccccc1)C(=O)N[C@H](Cc1c[nH]c2ccccc12)C(=O)N[C@@H](CCCCN)C(N)=O)
Unstimulated Basal GH Release from rat (peptide alone 1 μg i.v.): 199 ± 63 ng/mL | Unstimulated Basal GH Release from rat (peptide alone 3 μg i.v.): 266 ± 68 ng/mL | Unstimulated Basal GH Release from rat (peptide alone 10 μg i.v.): 199 ± 23 ng/mL | Unstimulated Basal GH Release from rat (peptide alone 30 μg i.v.): 346 ± 82 ng/mL | Unstimulated Basal GH Release from rat (peptide alone 100 μg i.v.): 350 ± 61 ng/mL

DThr-DαNal-DTrp-DPro-Arg-NH2 ([dT][d1Nal][dW][dP]R-NH2; N-terminus assumed; SMILES C[C@H](O)[C@@H](N)C(=O)N[C@H](Cc1cccc2ccccc12)C(=O)N[C@H](Cc1c[nH]c2ccccc12)C(=O)N1CCC[C@@H]1C(=O)N[C@@H](CCCNC(=N)N)C(N)=O)
Unstimulated Basal GH release from rats [1]: 60 ± 5 ng/mL | Unstimulated Basal GH release from rats [2]: 130 ± 24 ng/mL | Unstimulated Basal GH release from rats [3]: 134 ± 31 ng/mL

Glyψ[CH2NH]-DβNal-Ala-Trp-DPhe-Lys-NH2 (G[d2Nal]AW[dF]K-NH2; also: reduced Gly-ψ[CH2NH] bond between Gly1 and DβNal2)
Stimulated GH release from rat (Table 2, peptide antagonist 10 μg i.v. + stimulator DAla-DβNal-Ala-Trp-DPhe-Lys-NH2 0.3 μg): 1112 ± 200 ng/mL | Stimulated GH release from rat [4]: 2307 ± 176 ng/mL and 1842 ± 454 ng/mL | Stimulated GH release from rat [5]: 578 ± 82 ng/mL | Stimulated GH release from rat [6]: 890 ± 236 ng/mL and 1135 ± 140 ng/mL

DAla-Ala-DAla-DTrp-Phe-Lys-NH2 ([dA]A[dA][dW]FK-NH2; N-terminus assumed; SMILES C[C@H](NC(=O)[C@@H](C)N)C(=O)N[C@H](C)C(=O)N[C@H](Cc1c[nH]c2ccccc12)C(=O)N[C@@H](Cc1ccccc1)C(=O)N[C@@H](CCCCN)C(N)=O)
Unstimulated Basal GH release from rats [3]: 228 ± 76 ng/mL | Unstimulated Basal GH release from rats [7]: 172 ± 14 ng/mL | Unstimulated Basal GH release from rats (peptide antagonist alone 100 μg i.v.): 153 ± 45 ng/mL

αγAbu-DTrp-DTrp-Ser-NH2 ([Dab][dW][dW]S-NH2; N-terminus assumed; SMILES NCC[C@H](N)C(=O)N[C@H](Cc1c[nH]c2ccccc12)C(=O)N[C@H](Cc1c[nH]c2ccccc12)C(=O)N[C@@H](CO)C(N)=O)
Unstimulated Basal GH release from rats [1]: 80 ± 35 ng/mL | Unstimulated Basal GH release from rats [3]: 62 ± 15 ng/mL | Unstimulated Basal GH release from rats [7]: 67 ± 8 ng/mL

Lys-DHis-DTrp-Phe-NH2 (K[dH][dW]F-NH2; N-terminus assumed; SMILES NCCCC[C@H](N)C(=O)N[C@H](Cc1c[nH]cn1)C(=O)N[C@H](Cc1c[nH]c2ccccc12)C(=O)N[C@@H](Cc1ccccc1)C(N)=O)
Unstimulated Basal GH release from rats [3]: 121 ± 24 ng/mL

Alaψ[CH2NH]-DβNal-Ala-Trp-DPhe-Lys-NH2 (A[d2Nal]AW[dF]K-NH2; also: Ala1-DβNal2 reduced bond ψ[CH2NH])
Stimulated GH release from rat (Table 2, peptide antagonist 3 μg i.v. + stimulator DAla-DβNal-Ala-Trp-DPhe-Lys-NH2 1 μg): 2771 ± 157 ng/mL | Stimulated GH release from rat [4]: 2341 ± 416 ng/mL | Stimulated GH release from rat [6]: 1948 ± 450 ng/mL | Stimulated GH release from rat [8]: 1639 ± 221 ng/mL

αγAbu-DTrp-DTrp-Lys-NH2 ([Dab][dW][dW]K-NH2; N-terminus assumed; SMILES NCCCC[C@H](NC(=O)[C@@H](Cc1c[nH]c2ccccc12)NC(=O)[C@@H](Cc1c[nH]c2ccccc12)NC(=O)[C@@H](N)CCN)C(N)=O)
Unstimulated Basal GH release from rats [1]: 57 ± 7 ng/mL | Unstimulated Basal GH release from rats [2]: 84 ± 18 ng/mL | Unstimulated Basal GH release from rats [3]: 62 ± 15 ng/mL

αγAbu-DTrp-DTrp-Orn-NH2
Unstimulated Basal GH release from rats [1]: 118 ± 16 ng/mL | Unstimulated Basal GH release from rats [3]: 126 ± 27 ng/mL | Unstimulated Basal GH release from rats [7]: 79 ± 31 ng/mL

Tyr-DAla-Phe-Aib-NH2 (Y[dA]F[Aib]-NH2; N-terminus assumed; SMILES C[C@@H](NC(=O)[C@@H](N)Cc1ccc(O)cc1)C(=O)N[C@@H](Cc1ccccc1)C(=O)NC(C)(C)C(N)=O) [Tyr-DAla-Phe-Alb-NH2]
Stimulated (S) GH release from rats [9]: 23 ± 5 ng/mL | Unstimulated GH release from rats [10]: 18 ± 1 ng/mL

Ala-His-DTrp-DLys-Trp-DPhe-Lys-NH2 (AH[dW][dK]W[dF]K-NH2; N-terminus assumed; SMILES C[C@H](N)C(=O)N[C@@H](Cc1c[nH]cn1)C(=O)N[C@H](Cc1c[nH]c2ccccc12)C(=O)N[C@H](CCCCN)C(=O)N[C@@H](Cc1c[nH]c2ccccc12)C(=O)N[C@H](Cc1ccccc1)C(=O)N[C@@H](CCCCN)C(N)=O)
Stimulated GH release from rat [5]: 1487 ± 397 ng/mL

βAla-Trp-DAla-DTrp-Phe-NH2 ([βAla]W[dA][dW]F-NH2; N-terminus assumed; SMILES C[C@@H](NC(=O)[C@H](Cc1c[nH]c2ccccc12)NC(=O)CCN)C(=O)N[C@H](Cc1c[nH]c2ccccc12)C(=O)N[C@@H](Cc1ccccc1)C(N)=O)
Unstimulated Basal GH Release from rat (peptide alone 30 μg i.v.): 341 ± 46 ng/mL | Unstimulated Basal GH Release from rat (peptide alone 100 μg i.v.): 636 ± 171 ng/mL

DAla-DβNal-DLys-DTrp-Phe-Lys-NH2 ([dA][d2Nal][dK][dW]FK-NH2; N-terminus assumed; SMILES C[C@@H](N)C(=O)N[C@H](Cc1ccc2ccccc2c1)C(=O)N[C@H](CCCCN)C(=O)N[C@H](Cc1c[nH]c2ccccc12)C(=O)N[C@@H](Cc1ccccc1)C(=O)N[C@@H](CCCCN)C(N)=O)
Stimulated GH release from rat [6]: 2884 ± 828 ng/mL | Stimulated GH release from rat [8]: 1198 ± 114 ng/mL | Stimulated (S) GH release from rats (pentobarbital rats, peptide 30 μg i.v., stimulator 1 μg): 2864 ± 828 ng/mL | Stimulated (S) GH release from rats (pentobarbital rats, peptide 100 μg i.v., stimulator 1 μg): 1198 ± 114 ng/mL | Unstimulated GH release from rats [11]: 323 ± 50 ng/mL | Unstimulated GH release from rats [12]: 812 ± 6 ng/mL

Alaψ[CH2NH]His-DTrp-Ala-Trp-DPhe-Lys-NH2 (AH[dW]AW[dF]K-NH2; also: reduced bond ψ[CH2NH] between Ala1 and His2)
Unstimulated Basal GH release from rats [1]: 127 ± 32 ng/mL | Unstimulated Basal GH release from rats [2]: 147 ± 37 ng/mL

DβNal-Ala-Trp-DPhe-Leu-NH2 ([d2Nal]AW[dF]L-NH2; N-terminus assumed; SMILES CC(C)C[C@H](NC(=O)[C@@H](Cc1ccccc1)NC(=O)[C@H](Cc1c[nH]c2ccccc12)NC(=O)[C@H](C)NC(=O)[C@H](N)Cc1ccc2ccccc2c1)C(N)=O)
Unstimulated Basal GH Release from rat (peptide alone 3 μg i.v.): 253 ± 79 ng/mL | Unstimulated Basal GH Release from rat (peptide alone 10 μg i.v.): 277 ± 43 ng/mL | Unstimulated Basal GH Release from rat (peptide alone 30 μg i.v.): 347 ± 66 ng/mL | Unstimulated Basal GH Release from rat (peptide alone 100 μg i.v.): 645 ± 117 ng/mL

DLys-DβNal-Ala-Trp-DPhe-Lys-NH2 ([dK][d2Nal]AW[dF]K-NH2; N-terminus assumed; SMILES C[C@H](NC(=O)[C@@H](Cc1ccc2ccccc2c1)NC(=O)[C@H](N)CCCCN)C(=O)N[C@@H](Cc1c[nH]c2ccccc12)C(=O)N[C@H](Cc1ccccc1)C(=O)N[C@@H](CCCCN)C(N)=O)
Unstimulated GH release from rats (pentobarbital rats, peptide 3 μg i.v.): 616 ± 169 ng/mL | Unstimulated GH release from rats (pentobarbital rats, peptide 10 μg i.v.): 847 ± 17 ng/mL | Unstimulated GH release from rats [11]: 629 ± 146 ng/mL | Unstimulated GH release from rats [12]: 228 ± 45 ng/mL

αAbu-DTrp-DTrp-Orn-NH2
Unstimulated Basal GH release from rats [1]: 85 ± 25 ng/mL | Unstimulated Basal GH release from rats [3]: 88 ± 18 ng/mL | Unstimulated Basal GH release from rats [7]: 50 ± 6 ng/mL

Tyr-DAla-Sar-NMePhe-NH2
Stimulated (S) GH release from rats [9]: 24 ± 6 ng/mL | Unstimulated GH release from rats [10]: 18 ± 4 ng/mL

DAla-DβNal-Ala-Trp-DPhe-Lys-NH2 ([dA][d2Nal]AW[dF]K-NH2) [reference compound]
Stimulated Control 0.3 μg, GH release from rat (Table 2, stimulator DAla-DβNal-Ala-Trp-DPhe-Lys-NH2 alone, 0.3 μg): 2253 ± 252 ng/mL and 1412 ± 400 ng/mL | Stimulated Control 1 μg, GH release from rat (Table 2, stimulator DAla-DβNal-Ala-Trp-DPhe-Lys-NH2 alone, 1 μg): 3214 ± 276 ng/mL and 3105 ± 429 ng/mL and 2406 ± 288 ng/mL and 2825 ± 134 ng/mL and 3104 ± 429 ng/mL

DβNal-Ala-Trp-DPhe-Ala-NH2 ([d2Nal]AW[dF]A-NH2; N-terminus assumed; SMILES C[C@H](NC(=O)[C@@H](Cc1ccccc1)NC(=O)[C@H](Cc1c[nH]c2ccccc12)NC(=O)[C@H](C)NC(=O)[C@H](N)Cc1ccc2ccccc2c1)C(N)=O)
Unstimulated Basal GH Release from rat (peptide alone 1 μg i.v.): 623 ± 60 ng/mL | Unstimulated Basal GH Release from rat (peptide alone 3 μg i.v.): 694 ± 70 ng/mL | Unstimulated Basal GH Release from rat (peptide alone 10 μg i.v.): 654 ± 58 ng/mL | Unstimulated Basal GH Release from rat (peptide alone 30 μg i.v.): 713 ± 71 ng/mL

His-DTrp-Phe-Trp-DPhe-Lys-NH2 (H[dW]FW[dF]K-NH2; N-terminus assumed; SMILES NCCCC[C@H](NC(=O)[C@@H](Cc1ccccc1)NC(=O)[C@H](Cc1c[nH]c2ccccc12)NC(=O)[C@H](Cc1ccccc1)NC(=O)[C@@H](Cc1c[nH]c2ccccc12)NC(=O)[C@@H](N)Cc1c[nH]cn1)C(N)=O)
Unstimulated Basal GH Release from rat (peptide alone 1 μg i.v.): 67 ± 14 ng/mL | Unstimulated Basal GH Release from rat (peptide alone 3 μg i.v.): 141 ± 53 ng/mL | Unstimulated Basal GH Release from rat (peptide alone 10 μg i.v.): 197 ± 70 ng/mL | Unstimulated Basal GH Release from rat (peptide alone 30 μg i.v.): 509 ± 48 ng/mL
